Source: US20050163770A1 (CONNEX, published 2005)
Ends that are not written are not given here.

How the values were obtained:
[1] = biological target: T1, native zeta-chain from the lysate of CD8+ T-lymphocytes (human, UniProt P20963 22-164); assay: sandwich ELISA: zeta-chain from lysate captured by the antibody to amino acids 144-163, 2-B-5 at 1 ug/ml
T1 construct: Endogenous protein in a detergent lysate, captured on the plate by an antibody to the C-terminus; also called zeta-chain molecules from the T-cell lysate
T1 sequence (P20963 22-164 limits assumed): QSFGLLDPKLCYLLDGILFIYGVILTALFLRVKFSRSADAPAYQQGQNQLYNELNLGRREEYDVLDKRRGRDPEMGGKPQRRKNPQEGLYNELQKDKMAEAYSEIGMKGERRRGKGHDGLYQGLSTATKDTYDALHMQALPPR
Description: FIG. 4: Results of a Sandwich-ELISA confirming the reactivity of antibody 2-B-5 with native zeta-chain present in the lysate of the CD8⁺-T-cell lymphocytes. A zeta-chain specific antibody, which recognizes the amino acids 144-163 at the carboxy-terminus of the human zeta chain was coated for 12 hours to the wells of a 96 U-bottom plate, followed by blockade for one hour at room temperature with PBS/3% BSA. Subsequently the lysate of CD8⁺-cells was added undiluted and in several dilutions and incubated for one hour at room temperature. As negative control, the wells were incubated with PBS instead of the cell lysate. […] Bound 2-B-5 antibody was detected with a biotinylated mouse-anti-rat IgM antibody followed by an Avidin-peroxidase-conjugate. […] The colored precipitate was measured at 405 nm using an ELISA-reader.
A zeta-chain specific antibody (Santa Cruz Biotechnology, Cat-No 1124), which recognizes the amino acids 144-163 at the carboxy-terminus of the zeta chain was coated to wells of a 96 U-bottom plate (Nunc, maxisorb) at a concentration of 5 μg/ml. […] Bound 2-B-5 antibody was detected with a biotinylated mouse-anti-rat IgM antibody (Zymed, San Francisco, Calif., USA; Cat-No 03-9840; working concentration 400 ng/ml) followed by an Avidin-peroxidase-conjugate (Dako, Hamburg; Code-No P 03347; working concentration 1 μg/ml). […]

[2] = biological target: T2, human zeta-chain on the surface of CD8+ T-lymphocytes and NK-cells (human, UniProt P20963 22-164); assay: flow cytometry on human PBMC gated for CD8+ T-lymphocytes and NK-cells
T2 construct: whole, on cells; also called extracellular domain of the human zeta-chain on intact cells
T2 sequence (P20963 22-164): as the sequence (P20963 22-164 limits assumed) above
Description: FIG. 3: Flowcytometry-analysis of the zeta-chain specific binding activity of the 2-B-5 antibody on the surface of CD8⁺-T-lymphocytes and NK-cells. 100.000 mononucleated cells from peripheral blood of two different healthy donors were incubated with undiluted cell culture supernatant of the 2-B-5 hybridoma. Bound zeta-chain specific rat antibody was detected by a fluorescein (FITC) conjugated goat-anti-rat Ig (IgG+IgM) antibody diluted 1:100 in PBS. Triple color fluorescence analysis was carried out by applying a positive gate for CD8⁺ (Tricolor) and a negative gate for CD16⁺ (PE) cells thus allowing the detection of FITC-mediated fluorescence (filled lines) exclusively attributed to CD8⁺-T-lymphocytes (phenotype: CD8⁺, CD16⁻) without any contaminating signals from CD8⁺-NK-cells. Similarly, triple color fluorescence analysis was carried out by applying a positive gate for CD56⁺-(PE) and a negative gate for CD3⁺-cells (tricolor) thus allowing the detection of FITC-mediated fluorescence (filled lines) exclusively attributed to NK-cells (phenotype: CD56⁺, CD3⁻) without any contaminating signals from CD56⁺-T-lymphocytes. As isotype control (broken lines) culture supernatant of an antibody with the same isotype (rat IgM) but irrelevant specificity was used. […] Cells were analyzed by flowcytometry on a FACS-scan (Becton Dickinson).

[3] = biological target: T3, zeta-peptide-BSA-conjugate (not fully specified (residue 11); also: C-terminal Cys thiol coupled to BSA); assay: ELISA of rat hybridoma supernatants (diluted 1:1) on immobilized zeta-peptide-BSA-conjugate
T3 construct: also called zeta-peptide conjugated to bovine serum albumin
T3 peptide: QSFGLLDPKLC

binding result [1]: binds
binding result [2]: binds
binding result [3]: binds
B1: rat monoclonal anti-zeta-chain antibody 2-B-5 (rat IgM) (antibody, V domains shown)
VH: QVQLQQSGAELVKPGSSVKISCKASGYTFTSYDMHWIKQQPGNGLEWIGWIYPGNGNTKYNQKFNGKATLTADKSSSTAYMQLSSLTSEDSAVYFCARDWHYYSSYIRPFAYWGQGTLVTVSS
VL: DIQMTQSPASLSASPEEIVTITCQASQDIGNWLAWYQQKPGKSPQLLIYSATSLADGIPSRFSGSRSGTQYSLKISRLQVEDTGIYYCLQRYSNPNTFGAGTKLELK
notes: Rat IgM with kappa light chain; Used as hybridoma culture supernatant or purified by ion exchange chromatography; The constant regions are rat mu and kappa; also called 2-B-S; 2-B-5 hybridoma antibody
